This note sets out measurements from patent publication US11912782B2, “BCMA monoclonal antibody-drug conjugate” (MedImmune, LLC, priority 2017, dated 2024).

Test [1] concerns the target T1, monomeric human sBCMA (Homo sapiens, UniProt Q02223).
T1 construct: is comprised of the entire extracellular domain of the molecule; purchased GenScript
T1 sequence (Q02223 1-54 limits assumed): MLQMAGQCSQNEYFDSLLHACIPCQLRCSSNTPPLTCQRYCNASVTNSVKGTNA
In words: Kinetics/affinity measurement by SPR (BioRad ProteOn XPR36), antibody captured by anti-Fc, sBCMA flowed over. It counts as binding. Conditions: sBCMA 100-6.25 nM. How it is done: The binding of 15B2GL monoclonal antibody and optimized clones I09, L15, P10, N22, and M02 (described in Example 1) was assessed using monomeric human sBCMA (GenScript, Piscataway, N.J.) using a ProteOn™ XPR36 instrument (Bio-Rad, Hercules, Calif.). The binding of J6M0 also was assessed for comparison. Standard amine coupling was used to immobilize 25 μg/ml anti-Fc polyclonal antibody (Jackson ImmunoResearch, West Grove, Pa.) prepared in 10 mM sodium acetate buffer (pH 4.5) to the surface of a ProteOn™ GLC biosensor chip (Bio-Rad, Hercules, Calif.) pre-activated with 20 mM EDAC (1-ethyl-3-(3-dimethylaminopropyl)carbodiimide hydrochloride) and 5 mM Sulfo-NHS (N-hydroxysulfosuccinimide) at a density of ˜200-600 resonance units (RU). 15B2GL, I09, L15, P10, N22, M02, and J6M0 were subsequently injected at a concentration of 1 μg/ml for capture by the immobilized anti-Fc polyclonal antibody. The sensorgram was recorded by flowing two-fold serial dilutions of sBCMA prepared in PBS (pH 7.4) with 0.005% (v/v) Tween®-20, ranging from 100-6.25 nM, over the captured surface for 150 seconds at 75 μL/minute with dissociation time of 600 seconds. ProteOn™ data analysis software was used to analyze the data.

Test [2] has as its target T2, BAFF-R (Homo sapiens, UniProt Q96RJ3).
T2 construct: expressed in transfected cells
T2 sequence (Q96RJ3 1-184): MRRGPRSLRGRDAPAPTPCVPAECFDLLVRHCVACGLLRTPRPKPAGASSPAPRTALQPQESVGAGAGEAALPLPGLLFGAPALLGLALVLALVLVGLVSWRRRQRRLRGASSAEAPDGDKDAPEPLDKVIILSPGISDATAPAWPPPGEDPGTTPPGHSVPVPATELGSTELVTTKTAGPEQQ
Kind of test: FACS binding to Ad293 cells stably expressing BAFF-R. How it is done: (§1) Antibodies 4679, 756, and 15B2GL (as described below) were analyzed by FACS to evaluate binding of antibodies to human BCMA, cynomolgus monkey BCMA, TACI, and BAFF-R using recombinant forms of the receptors stably expressed on Ad293 cells. Binding assays were performed by incubating antibodies 4679, 756, and 15B2GL with 200,000 cells at 4° C. for 45 minutes followed by two washes with PBS+2% FBS. Cells were then incubated with Alexa-Fluor® 647-labeled secondary antibodies at 4° C., followed by two washes in PBS+2% FBS. Anti-BAFF-R, anti-TACI, and anti-human BCMA-APC labeled antibodies were added according to manufacturer's recommended dilution in control wells. Cells were resuspended in 200 uL PBS+2% FBS+DAPI and antibody binding to live cells was analyzed using a Becton Dickinson™ Biosciences LSRII cytometer.

Test [3] deals with T3, TACI (Homo sapiens, UniProt O14836).
T3 construct: expressed in transfected cells
T3 sequence (O14836 1-293): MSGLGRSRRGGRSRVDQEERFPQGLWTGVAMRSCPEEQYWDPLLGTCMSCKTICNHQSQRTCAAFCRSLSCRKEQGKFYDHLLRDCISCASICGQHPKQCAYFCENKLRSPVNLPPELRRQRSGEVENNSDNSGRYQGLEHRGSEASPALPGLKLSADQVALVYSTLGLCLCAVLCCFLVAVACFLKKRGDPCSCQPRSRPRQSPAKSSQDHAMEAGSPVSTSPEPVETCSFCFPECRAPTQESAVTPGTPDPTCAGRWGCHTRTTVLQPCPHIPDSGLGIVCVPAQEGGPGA
In words: FACS binding to Ad293 cells stably expressing TACI. How it is done: as §1

Test [4] deals with cynomolgus monkey BCMA. In words: FACS binding to Ad293 cells stably expressing cynomolgus BCMA. Conditions: Ad293 cells expressing cynoBCMA. How it is done: as §1
For test [5], the system named is H929 multiple myeloma cells. In words: Internalization by FACS on H929 cells. It counts as cell-based. Conditions: compared to J6M0 and the LO antibodies. How it is done:
The ability of the 15B2GL antibody and LO clones of 15B2GL to bind, internalize, and kill H929 multiple myeloma cells in vitro was assessed using Fab-ZAP and by FACS binding to endogenous BCMA expressed on cell lines as described above. Briefly, antibodies were incubated with 200,000 cells for 30 minutes at 4° C. followed by two washes with PBS+2% FBS. Cells were resuspended in 100 uL cold PBS+2% FBS and kept at 4° C. At certain timepoints, cells were washed and resuspended in warm RPMI+10% FBS and placed into a 37° C. incubator, 5% CO2. At the end of the experiment, cells were washed and then incubated with Alexa-Fluor® 647-labeled secondary antibodies at 4° C., followed by two washes in PBS+2% FBS. Cells were resuspended in 200 μL PBS+2% FBS+DAPI and antibody binding to live cells was analyzed using a Becton Dickinson Biosciences LSRII cytometer.

Entries after “also recorded” stand apart in the source; their conditions may differ.

B1: 15B2GL: germline form of anti-BCMA monoclonal antibody 15B2; VH SEQ ID NO: 7, VL SEQ ID NO: 8 (antibody, V domains shown)
VH: EVQLVESGGGLVKPGGSLRLSCAASGFTFRSYSMNWVRQAPGKGLEWVSSISGSSNYIYYADSVKGRFTISRDNAKNSLYLQMNSLRAEDTAVYYCARGGNYYVEYFQYWGQGTLVTVSS
VL: EIVLTQSPGTLSLSPGERATLSCRASQYISSNYLAWYQQKPGQAPRLLIYGASNRATGIPDRFSGSGSGTDFTLTISRLEPEDFAVYYCQQYGSSPITFGQGTKLEIK
In test [1], B1 registered a Koff of 2.27E−02 and a Kon of 3.73E+05. Besides, the “Binding to BAFF-R” value in test [2] is “did not bind”. Moreover, in test [3], the “Binding to TACI” value is listed as “did not bind”. In addition, in test [4], the Cynomolgus cross-reactivity entry was “cynomolgus cross-reactive; also recorded: cyno-cross reactive”. For the same molecule, the Internalization result in test [5] is “unique and rapid internalization”.
